Results reported in US20230265151A1, “GIP/GLP1 CO-AGONIST COMPOUNDS” (priority 2020, published 2023).
Where a chain is given by its changes, count along the chain named.

Experiments:
Test in all cases: cell-based or functional assay
[1] = target: T1, human GIP receptor (human) (UniProt P48546)
T1 sequence (looked up): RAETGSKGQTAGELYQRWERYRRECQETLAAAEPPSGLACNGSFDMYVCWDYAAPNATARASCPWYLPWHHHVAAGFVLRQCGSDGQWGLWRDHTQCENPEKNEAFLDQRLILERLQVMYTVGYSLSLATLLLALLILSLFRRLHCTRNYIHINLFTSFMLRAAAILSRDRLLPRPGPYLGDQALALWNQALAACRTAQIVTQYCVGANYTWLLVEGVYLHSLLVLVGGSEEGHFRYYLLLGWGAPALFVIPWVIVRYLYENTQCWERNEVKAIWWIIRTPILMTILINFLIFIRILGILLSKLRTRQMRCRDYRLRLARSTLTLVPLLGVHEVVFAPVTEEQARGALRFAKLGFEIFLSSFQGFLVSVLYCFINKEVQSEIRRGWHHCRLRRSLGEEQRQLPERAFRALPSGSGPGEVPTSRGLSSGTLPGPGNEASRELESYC

hGLP-1R = hGLP-1R (Homo sapiens, UniProt P43220)
[2] = target: human glucagon receptor (human) (UniProt P47871)
human GLP-1 receptor = human GLP-1 receptor (human, UniProt P43220 24-463)
human GIP receptor [3] = target: T2, human GIP receptor (human, UniProt P48546 22-466)
T2 sequence (looked up): T1 sequence (looked up)

human glucagon receptor [4] = target: human glucagon receptor (human, UniProt P47871 26-477)
Target sequence in this assay (P47871 26-477): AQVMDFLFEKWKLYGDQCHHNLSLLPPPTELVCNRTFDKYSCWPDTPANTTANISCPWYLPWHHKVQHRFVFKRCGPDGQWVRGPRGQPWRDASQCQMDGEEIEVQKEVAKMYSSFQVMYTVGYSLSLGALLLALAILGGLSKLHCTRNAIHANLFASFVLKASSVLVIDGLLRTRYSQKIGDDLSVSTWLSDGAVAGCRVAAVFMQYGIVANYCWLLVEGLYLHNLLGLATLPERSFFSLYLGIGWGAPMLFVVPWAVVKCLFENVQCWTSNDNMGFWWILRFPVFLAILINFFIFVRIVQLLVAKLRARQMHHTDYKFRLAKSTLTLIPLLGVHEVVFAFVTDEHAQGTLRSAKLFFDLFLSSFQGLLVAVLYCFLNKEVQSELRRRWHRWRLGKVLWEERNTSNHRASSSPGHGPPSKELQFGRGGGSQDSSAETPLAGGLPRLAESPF

human glucagon receptor [5] = target: human glucagon receptor (human, UniProt P47871 26-477); remark: listed apart in the source
human GIP receptor [6] = target: T3, human GIP receptor (human, UniProt P48546 22-466); remark: listed apart in the source
T3 sequence (looked up): T1 sequence (looked up)

B1: Example 437 (peptide)
peptide: YXEGTXTSDXXIXLDXKAQXKXIXXLIEGGPSSGAPPPS
modifications: Y-Aib-EGT-αMeF(2F)-TSD-4Pal-Aib-I-αMeL-LD-Orn-K((2-[2-(2-Amino-ethoxy)-ethoxy]-acetyl)3-(γ-Glu)-CO-(CH2)10-CH3)AQ-Aib-K((2-[2-(2-Amino-ethoxy)-ethoxy]-acetyl)3-(γ-Glu)-CO-(CH2)10-CH3)-αMeF-I-(D-Glu)-αMeY-LIEGGPSSGAPPPS-NH2
B1 showed a cAMP EC50 [1] of 0.0146 nM, a cAMP Emax [1] of 94.8% and a cAMP EC50 (hGLP-1R) of 0.249 nM. The cAMP Emax (hGLP-1R) was 89.2%, the cAMP EC50 [2] was > 9950 nM and the “cAMP EC50 (1.0% HSA)” value (human GLP-1 receptor) was 9.65 nM. For the same binder, the “cAMP Emax (1.0% HSA)” value (human GLP-1 receptor) was 91.2%, the “cAMP EC50 (1.0% HSA)” value (human GIP receptor [3]) was 0.461 nM and the “cAMP Emax (1.0% HSA)” value (human GIP receptor [3]) was 96.5%. The “cAMP EC50 (1.0% HSA)” value (human glucagon receptor [4]) was > 9950 nM.

B2: Example 438 (peptide)
peptide: B1 peptide with K21E, E28K
modifications: Y-Aib-EGT-αMeF(2F)-TSD-4Pal-Aib-I-αMeL-LD-Orn-K((2-[2-(2-Amino-ethoxy)-ethoxy]-acetyl)3-(γ-Glu)-CO-(CH2)10-CH3)AQ-Aib-E-αMeF-I-(D-Glu)-αMeY-LIK((2-[2-(2-Amino-ethoxy)-ethoxy]-acetyl)3-(γ-Glu)-CO-(CH2)10-CH3)GGPSSGAPPPS-NH2
With B2 the cAMP EC50 [1] was 0.0157 nM, the cAMP Emax [1] was 98.9% and the cAMP EC50 (hGLP-1R) was 0.471 nM. The cAMP Emax (hGLP-1R) was 88.5%, the cAMP EC50 [2] was > 9950 nM and the “cAMP EC50 (1.0% HSA)” value (human GLP-1 receptor) was 28 nM. The “cAMP Emax (1.0% HSA)” value (human GLP-1 receptor) was 88.7%, the “cAMP EC50 (1.0% HSA)” value (human GIP receptor [3]) was 0.592 nM and the “cAMP Emax (1.0% HSA)” value (human GIP receptor [3]) was 90.8%. For the same binder, the “cAMP EC50 (1.0% HSA)” value (human glucagon receptor [4]) was > 9950 nM.

B3: Example 439 (peptide)
peptide: YXEGTXTSDXXIXLDXKAQXEXIXXLIEGGPSSGAPPPSK
modifications: Y-Aib-EGT-αMeF(2F)-TSD-4Pal-Aib-I-αMeL-LD-Orn-K((2-[2-(2-Amino-ethoxy)-ethoxy]-acetyl)3-(Y-Glu)-CO-(CH2)10-CH3)AQ-Aib-E-αMeF-I-(D-Glu)-αMeY-LIEGGPSSGAPPPSK((2-[2-(2-Amino-ethoxy)-ethoxy]-acetyl)3-(γ-Glu)-CO-(CH2)10-CH3)-NH2
Binder B3 has a cAMP EC50 [1] of 0.00799 nM, a cAMP EC50 (hGLP-1R) of 0.11 nM and a cAMP Emax (hGLP-1R) of 95.7%. The cAMP EC50 [2] was > 9950 nM, the “cAMP EC50 (1.0% HSA)” value (human GLP-1 receptor) was 9.25 nM and the “cAMP Emax (1.0% HSA)” value (human GLP-1 receptor) was 97%. The “cAMP EC50 (1.0% HSA)” value (human GIP receptor [3]) was 0.396 nM, the “cAMP Emax (1.0% HSA)” value (human GIP receptor [3]) was 91.7% and the “cAMP EC50 (1.0% HSA)” value (human glucagon receptor [4]) was > 9950 nM.

B4: Example 445 (peptide)
peptide: B1 peptide with X10K, X16G, K21E, X22F
modifications: Y-Aib-EGT-αMeF(2F)-TSDK((2-[2-(2-Amino-ethoxy)-ethoxy]-acetyl)2-(γ-Glu)-CO-(CH2)10-CH3)-Aib-I-αMeL-LDGK((2-[2-(2-Amino-ethoxy)-ethoxy]-acetyl)2-(γ-Glu)-CO-(CH2)10-CH3)AQ-Aib-EFI-(D-Glu)-αMeY-LIEGGPSSGAPPPS-NH2
B4 gave a cAMP EC50 [1] of 0.00728 nM, a cAMP Emax [1] of 102% and a cAMP EC50 (hGLP-1R) of 0.0781 nM. For the same binder, the cAMP Emax (hGLP-1R) was 103%, the cAMP EC50 [2] was > 9950 nM and the “cAMP EC50 (1.0% HSA)” value (human GLP-1 receptor) was 13.1 nM. The “cAMP Emax (1.0% HSA)” value (human GLP-1 receptor) was 100%, the “cAMP EC50 (1.0% HSA)” value (human GIP receptor [3]) was 1.17 nM and the “cAMP Emax (1.0% HSA)” value (human GIP receptor [3]) was 91.4%. For the same binder, the “cAMP EC50 (1.0% HSA)” value (human glucagon receptor [4]) was > 9950 nM.

B5: Example 488 (peptide)
peptide: B1 peptide with K17Q, X22F, E28K
modifications: Y-Aib-EGT-αMeF(2F)-TSD-4Pal-Aib-I-αMeL-LD-Orn-QAQ-Aib-K((2-[2-(2-Amino-ethoxy)-ethoxy]-acetyl)2-(γ-Glu)-CO-(CH2)12-CO2H)FI-(D-Glu)-αMeY-LIK((2-[2-(2-Amino-ethoxy)-ethoxy]-acetyl)2-(γ-Glu)-CO-(CH2)12-CO2H)GGPSSGAPPPS-NH2
Work on B5 yielded a cAMP EC50 [1] of 0.0115 nM, a cAMP Emax [1] of 104% and a cAMP EC50 (hGLP-1R) of 0.207 nM. The cAMP Emax (hGLP-1R) was 113%, the cAMP EC50 [2] was > 10100 nM and the “cAMP EC50 (1.0% HSA)” value (human GLP-1 receptor) was 13 nM. The “cAMP EC50 (1.0% HSA)” value (human GIP receptor [3]) was 0.718 nM, the “cAMP Emax (1.0% HSA)” value (human GIP receptor [3]) was 85.5% and the “cAMP EC50 (1.0% HSA)” value (human glucagon receptor [4]) was > 9950 nM.

B6: Example 489 (peptide)
peptide: B3 peptide with K17Q, E21K, X22F
modifications: Y-Aib-EGT-αMeF(2F)-TSD-4Pal-Aib-I-αMeL-LD-Orn-QAQ-Aib-K((2-[2-(2-Amino-ethoxy)-ethoxy]-acetyl)2-(γ-Glu)-CO-(CH2)12-CO2H)FI-(D-Glu)-αMeY-LIEGGPSSGAPPPSK((2-[2-(2-Amino-ethoxy)-ethoxy]-acetyl)2-(γ-Glu)-CO-(CH2)12-CO2H)-NH2
B6 showed a cAMP EC50 [1] of 0.0131 nM, a cAMP Emax [1] of 103% and a cAMP EC50 (hGLP-1R) of 0.257 nM. For the same binder, the cAMP Emax (hGLP-1R) was 112%, the cAMP EC50 [2] was > 10100 nM and the “cAMP EC50 (1.0% HSA)” value (human GLP-1 receptor) was 13.5 nM. The “cAMP Emax (1.0% HSA)” value (human GLP-1 receptor) was 98.7%, the “cAMP EC50 (1.0% HSA)” value (human GIP receptor [3]) was 0.578 nM and the “cAMP Emax (1.0% HSA)” value (human GIP receptor [3]) was 79.4%. The “cAMP EC50 (1.0% HSA)” value (human glucagon receptor [4]) was > 9950 nM.

B7: Y-Aib-EGT-αMeF(2F)-TSD-4Pal-SI-αMeL-LD-Orn-IAQ-Aib-EFI-(D-Glu)-αMeY-LIK((2-[2-(2-Amino-ethoxy)-ethoxy]-acetyl)2-(γ-Glu)-CO-(CH2)12-CO2H)GGK((2-[2-(2-Amino-ethox … (peptide)
peptide: YXEGTXTSDXSIXLDXIAQXEFIXXLIKGGKSSGAPPPS
modifications: Aib2, αMeF(2F)6, 4Pal10, αMeL13, Orn16, Aib20, D-Glu24, αMeY25; acylated K28, K31 (groups as in name); C-terminal amide
In the case of B7, the “cAMP EC50 (1.0% HSA)” value (human glucagon receptor [5]) is reported as > 9950 nM and the “cAMP EC50 (1.0% HSA)” value (human GIP receptor [6]) is reported as 1.66 nM.

B8: Y-Aib-EGT-αMeF(2F)-TSD-4Pal-SI-αMeL-LD-Orn-IAQ-Aib-EFI-(D-Glu)-αMeY-LIK((2-[2-(2-Amino-ethoxy)-ethoxy]-acetyl)2-(γ-Glu)-CO-(CH2)14-CH3)GGK((2-[2-(2-Amino-ethoxy … (peptide)
peptide: B7 peptide
modifications: Aib2, αMeF(2F)6, 4Pal10, αMeL13, Orn16, Aib20, D-Glu24, αMeY25; acylated K28, K31 (groups as in name); C-terminal amide
For B8, the “cAMP EC50 (1.0% HSA)” value (human glucagon receptor [5]) was > 9950 nM and the “cAMP EC50 (1.0% HSA)” value (human GIP receptor [6]) was 1.2 nM.

B9: Y-Aib-EGT-αMeF-TSD-4Pal-SI-αMeL-LD-Orn-K((2-[2-(2-Amino-ethoxy)-ethoxy]-acetyl)2-(γ-Glu)-CO-(CH2)12-CO2H)AQ-Aib-E-αMeF-I-(D-Glu)-αMeY-LIEGGK((2-[2-(2-Amino-etho … (peptide)
peptide: B7 peptide with I17K, F22X, K28E
modifications: Aib2, αMeF6, 4Pal10, αMeL13, Orn16, Aib20, αMeF22, D-Glu24, αMeY25; acylated K17, K31 (groups as in name); C-terminal amide
B9 was tested, and the “cAMP EC50 (1.0% HSA)” value (human glucagon receptor [5]) was > 9950 nM and the “cAMP EC50 (1.0% HSA)” value (human GIP receptor [6]) was 0.777 nM.

B10: Y-Aib-EGT-αMeF(2F)-TSD-1Nal-SI-αMeL-LD-Orn-K((2-[2-(2-Amino-ethoxy)-ethoxy]-acetyl)2-(γ-Glu)-CO-(CH2)12-CO2H)AQ-Aib-EFI-(D-Glu)-αMeY-LIEGGK((2-[2-(2-Amino-ethox … (peptide)
peptide: B7 peptide with I17K, K28E
modifications: Aib2, αMeF(2F)6, 1Nal10, αMeL13, Orn16, Aib20, D-Glu24, αMeY25; acylated K17, K31 (groups as in name); C-terminal amide
For B10, the “cAMP EC50 (1.0% HSA)” value (human glucagon receptor [5]) was > 9950 nM and the “cAMP EC50 (1.0% HSA)” value (human GIP receptor [6]) was 6.75 nM.
